These results are taken from PMC6172241, “A multisubstrate reductase from Plantago major: structure-function in the short chain reductase superfamily” (Scientific Reports, 2018).

This test concerns the target PmMOR (Plantago major multisubstrate oxido-reductase) (Plantago major). The test is described as follows: SEC; Superdex 200, 20 mM Tris pH 8.0, 100 mM NaCl, 1 mM TCEP; oligomeric state judged from the elution volume.

As to “PmMOR (Plantago major multisubstrate oxido-reductase) (enzyme)”, the stoichiometry N (as a rule, the number of molecules, sites or subunits per partner or assembly) turned out to be 2.
